Source: the Immune Epitope Database (IEDB)

Assays:
Experiment in all cases: IEDB peptide-MHC binding, purified MHC/competitive/fluorescence; filed as Kd, often an IC50 or EC50 that approximates it; ≥ and ≤ were set here for values at or beyond the usual limits of such assays
Settings in all cases: source organism: Xanthobacter autotrophicus Py2
HLA-A*02:01 = target: HLA-A*02:01
HLA-A*02:12 = target: HLA-A*02:12
HLA-A*03:01 = target: HLA-A*03:01
HLA-A*25:01 = target: HLA-A*25:01
HLA-A*26:01 = target: HLA-A*26:01
HLA-A*29:02 = target: HLA-A*29:02
HLA-A*68:02 = target: HLA-A*68:02
HLA-A*69:01 = target: HLA-A*69:01
HLA-A*80:01 = target: HLA-A*80:01
HLA-B*15:17 = target: HLA-B*15:17
HLA-B*18:01 = target: HLA-B*18:01
HLA-B*27:03 = target: HLA-B*27:03
HLA-B*46:01 = target: HLA-B*46:01
HLA-B*51:01 = target: HLA-B*51:01
HLA-B*57:01 = target: HLA-B*57:01

GQMYNMNTL gave a Kd (HLA-A*02:01) of no less than 20 µM, a Kd (HLA-A*02:12) of 0.0014 µM and a Kd (HLA-A*03:01) of no less than 20 µM. It also gave a Kd (HLA-A*25:01) of no less than 20 µM, a Kd (HLA-A*26:01) of no less than 20 µM and a Kd (HLA-A*29:02) of no less than 20 µM. It also gave a Kd (HLA-A*68:02) of no less than 20 µM, a Kd (HLA-A*69:01) of no less than 20 µM and a Kd (HLA-A*80:01) of no less than 20 µM. It also gave a Kd (HLA-B*15:17) of no less than 20 µM, a Kd (HLA-B*18:01) of no less than 20 µM and a Kd (HLA-B*27:03) of no less than 20 µM. The Kd (HLA-B*46:01) was no less than 20 µM, the Kd (HLA-B*51:01) was no less than 20 µM and the Kd (HLA-B*57:01) was no less than 20 µM.
